In article PMC5216127 (2017) one finds Kd data, which are given here for 1 molecule.

The target in experiment [1] is T1, GST-TCF4 (8–411, deletion 66–325) (human, biotin (only where coated on the streptavidin biosensor, Figure 5e)).
T1 chain: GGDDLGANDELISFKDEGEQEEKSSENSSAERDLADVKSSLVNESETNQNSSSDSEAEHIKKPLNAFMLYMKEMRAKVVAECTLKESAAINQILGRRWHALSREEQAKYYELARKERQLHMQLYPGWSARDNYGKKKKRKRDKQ
In words: BLI. Background: Biolayer interferometry detects binding as a change in optical thickness at a sensor tip.

Experiment [2] has as its target T2, GST-tagged TCF4 (amino acids 326–411) (human).
T2 chain: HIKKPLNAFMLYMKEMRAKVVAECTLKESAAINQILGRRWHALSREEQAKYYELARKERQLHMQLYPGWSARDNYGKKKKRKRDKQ
The experiment in a line: BLI.

B1: TEAD4 (TEA, 38–105) (domain or fragment)
chain: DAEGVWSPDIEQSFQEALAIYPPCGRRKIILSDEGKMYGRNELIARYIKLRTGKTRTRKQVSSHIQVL
In general, Kd refers to a measure of binding affinity in units of concentration. As to B1, the equilibrium dissociation constant (Kd) was 132 nM in experiment [1] and 288 nM in experiment [2].
